Changes are numbered by the printed parent chain. Names may count otherwise. “And” between values parts separate entries of the source, which are not always exact repeats. Identical values can stand only once.
T1: soluble ODAR-Fc fusion (FLAG-human ODAR extracellular domain-human Fc) (human, UniProt Q9Y6Q6 30-212)
T1 construct: extracellular domain; also called sODAR-Fc; not shown: amino terminal FLAG tag; carboxy terminal human Fc region
T1 sequence (looked up): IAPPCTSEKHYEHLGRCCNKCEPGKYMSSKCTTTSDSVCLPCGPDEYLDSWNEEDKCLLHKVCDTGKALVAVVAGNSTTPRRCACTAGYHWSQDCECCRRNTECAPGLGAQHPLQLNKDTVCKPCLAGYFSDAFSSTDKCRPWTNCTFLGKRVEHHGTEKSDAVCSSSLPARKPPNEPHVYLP

B1: human OPGbp [143-317] (ligand, UniProt O14788 143-317, looked up)
chain: EKAMVDGSWLDLAKRSKLEAQPFAHLTINATDIPSGSHKVSLSSWYHDRGWAKISNMTFSNGKLIVNQDGFYYLYANICFRHHETSGDLATEYLQLMVYVTKTSIKIPSSHTLMKGGSTKYWSGNSEFHFYSINVGGFFKLRSGEEISIEVSNPSLLDPDQDATYFGAFKVRDID
notes: also called OPGL
B2: Fab “AT” (Fab, V domains shown)
VH: QVQLVQSGAEVRKPGASVKVSCKASGYDFSNYAIHWVRQAPGQRLEWMGWINAGNGNTKFSQKFQGRITVTRDTAASTAYMELRSLRSEDTAVYYCARDSSNMVRGIIIAYYFDYWGQGTLVTVSS
VL: EIVMTQSPSSLSASVGDRVTITCRASQSISRYLNWYQLKPGKAPRLLIYGASSLQSGVPSRFSGSGSGAEFTLTISSLQPEDIATYYCQHTRAFGQGTKVEIKR
notes: Soluble Fab from E. coli periplasm purified on Talon resin; also called soluble Fab “AT”; Fab pattern “AT”
B3: Fab “Y” (Fab, V domains shown)
VH: B2 VH with Q1E
VL: EIVLTQSPATLSFSPGERATLSCRASQSVGSYLAWYQQRPGQAPRPLIYDATNRATGIPTRFSGSGSGTDFTLTISSLEPEDFATYYCQHRRTFGRGTKLEIKR
notes: also called soluble Fab “Y”; Fab pattern “Y”
B4: “AT” Fab variant G(100b)A (heavy chain CDR3) (Fab, name in Kabat numbering, V domains shown)
VH: B2 VH with G106A
VL: B2 VL
B5: “AT” Fab variant R(100a)A (heavy chain CDR3) (Fab, name in Kabat numbering, V domains shown)
VH: B2 VH with R105A
VL: B2 VL
B6: “AT” Fab variant S97A (heavy chain CDR3) (Fab, name in Kabat numbering, V domains shown)
VH: B2 VH with S101A
VL: B2 VL
B7: “AT” Fab variant S96A (heavy chain CDR3) (Fab, name in Kabat numbering, V domains shown)
VH: B2 VH with S100A
VL: B2 VL
B8: “AT” Fab variant I(100e)A (heavy chain CDR3) (Fab, name in Kabat numbering, V domains shown)
VH: B2 VH with I109A
VL: B2 VL
B9: “AT” Fab variant V100A (heavy chain CDR3) (Fab, name in Kabat numbering, V domains shown)
VH: B2 VH with V104A
VL: B2 VL
B10: “AT” Fab variant N98A (heavy chain CDR3) (Fab, name in Kabat numbering, V domains shown)
VH: B2 VH with N102A
VL: B2 VL
B11: “AT” Fab variant M99A (heavy chain CDR3) (Fab, name in Kabat numbering, V domains shown)
VH: B2 VH with M103A
VL: B2 VL
B12: “AT” Fab variant I(100c)A (heavy chain CDR3) (Fab, name in Kabat numbering, V domains shown)
VH: B2 VH with I107A
VL: B2 VL
B13: “AT” Fab variant Y(100h)A (heavy chain CDR3) (Fab, name in Kabat numbering, V domains shown)
VH: B2 VH with Y112A
VL: B2 VL
B14: “AT” Fab variant Y(100g)A (heavy chain CDR3) (Fab, name in Kabat numbering, V domains shown)
VH: B2 VH with Y111A
VL: B2 VL
B15: “AT” Fab variant I(100d)A (heavy chain CDR3) (Fab, name in Kabat numbering, V domains shown)
VH: B2 VH with I108A
VL: B2 VL
B16: “AT” Fab variant D95A (heavy chain CDR3) (Fab, name in Kabat numbering, V domains shown)
VH: B2 VH with D99A
VL: B2 VL
B17: human OPG [22-194]-Fc (Fc fusion, UniProt O00300 22-194, looked up, not shown: a dimerising Fc or GST)
chain: ETFPPKYLHYDEETSHQLLCDKCPPGTYLKQHCTAKWKTVCAPCPDHYYTDSWHTSDECLYCSPVCKELQYVKQECNRTHNRVCECKEGRYLEIEFCLKHRSCPPGFGVVQAGTPERNTVCKRCPDGFFSNETSSKAPCRKHTNCSVFGLLLTQKGNATHDNICSGNSESTQK
B18: Fab “S” (Fab, V domains shown)
VH: EVQLLESGGGLVQPGRSLRLSCAASGFTFDDYAMHWVRQAPGKGLEWVSGISWNSGRIGYADSVKGRFTISRDNAKNSLYLQMNSLRPEDTAFYYCAKGGSTSARYSSGWYYWGQGTLVTVSS
VL: QSVLTQPPSVSVSPGQTATITCSGDALPKQYVYWYRQKPGQAPLLVIYEDSERPSGIPERFSGSSSGTEVTLSISGVQAEDEADYYCQSTDSSGTYVVFGGGTKLTVLS
notes: also called Fab pattern “S”

Experiments:
[1] = target: T1, soluble ODAR-Fc fusion (FLAG-human ODAR …); experiment: FRET competition, unlabelled OPGbp against OPGbp-Eu on sODAR-Fc, in TBS (positive control)
Procedure: (§1) A 1 hour preincubation with OPGbp was added for increased sensitivity. A soluble extracellular domain of human ODAR was constructed as a fusion polypeptide with an amino terminal FLAG tag and a carboxy terminal human Fc region. The Fc region is recognized and bound by a polyclonal goat anti-human Fc specific allophycocyanin (APC) which is detected by […] at 665 nm. […] Binding of OPGbp to ODAR in this assay triggers a fluorescent energy transfer and is highly sensitive for competition curves. A decrease in the A665/A620 absorbance ratio indicates inhibition of OPGbp binding to ODAR.
(§2) The Fab “Y” clone 1B4 was from the predominant 9 member pattern from one 96-well plate (all with same amino acid sequence) from the optimized plated OPGbp screen using a 1 μM OPGbp elution for 90 min. […] Similar IC50's were obtained with the duplicate preparations “A” and “B”.

[2] = target: T1, soluble ODAR-Fc fusion (FLAG-human ODAR …); experiment: FRET competition, unlabelled OPGbp against OPGbp-Eu on sODAR-Fc, in PBS (positive control)
Procedure: as §1, §2

[3] = target: B1; experiment: SPR (BIAcore), OPGbp on CM5 chip
Procedure: The binding constant (Kd), on rate constant (ka) and off rate constant (kd) for Fabs “AT” and “Y” and “AT” antibody were determined by surface plasmon resonance techniques (BIAcore, Pharmacia, Piscataway, N.J.) and the results are shown in Table II. Fabs were prepared as described in Example 4 and “AT” antibody prepared as described in Example 7. OPGbp was immobilized on a CM5-chip by standard amine coupling. The Kd and rate constants were determined by BIAEVALUATION 3.0 software (Pharmacia).

[4] = target: B1; experiment: SPR (BIAcore), immobilized OPGbp [143-317]
[5] = target: B1; experiment: FRET competition, inhibition of OPGbp-Eu binding to sODAR-Fc
Procedure: as §1, §2

[6] = target: B1; experiment: FRET competition, inhibition of OPGbp-Eu binding to sODAR-Fc, in TBS
Procedure: as §1, §2

[7] = target: B1; experiment: FRET competition, inhibition of OPGbp-Eu binding to sODAR-Fc, in PBS
Procedure: as §1, §2

[8] = target: B1; experiment: cell-based or functional assay
[9] = target: B1; experiment: phage ELISA on plated OPGbp [143-317]

Binder: B1
IC50 [1]: 0.89 nM
IC50 [2]: 0.93 nM

Binder: B2
Kd [3]: 140 nM
koff [3]: 0.31 s⁻¹
kon [3]: 2.2e+06 M⁻¹ s⁻¹
koff [4]: 0.284 s⁻¹
IC50 [5]: 0.55 µM
IC50 [6]: 354 nM
IC50 [7]: 440 nM
RAW cell assay (TRAP, OD405), IC50 [8]: 15 µg/ml and 300 nM
murine bone marrow assay, TRAP activity in solution (pNPP), 50% decrease (IC50) [8]: 57.8 nM

Binder: B3
Kd [3]: 594 nM
koff [3]: 0.00591 s⁻¹
kon [3]: 9440 M⁻¹ s⁻¹
IC50 [5]: 6 µM
IC50 [6]: 4100 nM

Binder: B4
koff [4]: 0.657 s⁻¹

Binder: B5
koff [4]: 0.303 s⁻¹

Binder: B6
koff [4]: 0.0062 s⁻¹

Binder: B7
koff [4]: 0.0072 s⁻¹

Binder: B8
koff [4]: 0.0069 s⁻¹

Binder: B9
koff [4]: 0.261 s⁻¹

Binder: B10
koff [4]: 0.012 s⁻¹

Binder: B11
koff [4]: 1.12 s⁻¹

Binder: B12
koff [4]: 0.53 s⁻¹

Binder: B13
koff [4]: 0.368 s⁻¹

Binder: B14
koff [4]: 0.074 s⁻¹

Binder: B15
koff [4]: 0.622 s⁻¹

Binder: B16
binding result [4]: no binding

Binder: B17
RAW cell assay, IC50, positive control [8]: 33 ng/mL

Binder: B18
binding result [9]: binds

Source: patent US20140147444A1 (published 2014)
